Bridge positions count the residues as written; N and C are the ends. Ends that are not written are not given here.

The test has as its target T1, human islet amyloid polypeptide (IAPP) (human) (not fully specified).
T1 chain: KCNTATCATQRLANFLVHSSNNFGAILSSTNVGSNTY
Description: seeded thioflavin T fluorescence aggregation kinetics; 5 uM monomeric IAPP with preformed IAPP fibril seeds at 0 to 33% (monomer equivalents), 33 mM acetate, 150 mM KCl, pH 5.3, 37 C, quiescent; elongation (monomer added to fibril ends) from the initial gradient at 33% seeds and the fibril length by cryo-TEM. To be noted: remark: other sources report otherwise.

B1: human islet amyloid polypeptide (IAPP) (peptide)
chain: KCNTATCATQRLANFLVHSSNNFGAILSSTNVGSNTY-NH2
modifications: disulfide 2-7 (inferred); not fully specified
As for B1, the elongation rate constant k+ was 500000 M⁻¹ s⁻¹.
